The values below come from US11208498B2, “Treatment and prevention of cancer using HER3 antigen-binding molecules” (Hummingbird Bioscience Holdings Pte. Ltd., priority 2019, dated 2021).

For one series, the target named is human HER3 (Homo sapiens, UniProt P21860). Nature of the series: Global affinity study by Bio-Layer Interferometry (Octet QK384). The class given is binding. The following applies: HER3 unbound, 'closed' conformation. As to the method: The anti-HER3 antibody clones in IgG1 format were analysed for binding affinity to human HER3.
Bio-Layer Interferometry (BLI) experiments were performed using the Octet QK384 system (ForteBio). anti-Human IgG Capture (AHC) Octet sensor tips (Pall ForteBio, USA) were used to anti-HER3 antibodies (25 nM). All measurements were performed at 25° C. with agitation at 1000 rpm. […] Sensograms were referenced for buffer effects and then fitted using the Octet QK384 user software (Pall ForteBio, USA).
(§1) Binding of anti-HER3 antibodies to human HER3 was evaluated by BLI. Briefly, anti-Human IgG Capture (AHC) sensors (ForteBio) were loaded with anti-HER3 IgG antibodies (25 nM). Kinetic measurements were performed in absence or presence of NRG1. NRG1 was used at 1:1 molar ratio with HER3 wherein the complex was allowed to form at RT for 2 h. His-tagged human HER3 or HER3-NRG1 complexes were loaded to antibody coated AHC sensors at different concentrations for 120 s, followed by a 120 s dissociation time. All measurements were performed at 25° C. with agitation at 1000 rpm. Sensorgrams were referenced for buffer effects and then analyzed using the Octet QK384-software (ForteBio). Kinetic responses were globally fitted using a one-site binding model to obtain values for association (Kon), dissociation (Koff) rate constants and the equilibrium dissociation constant (KD).

Series [1] has as its target human HER3: human NRG1 complex (Homo sapiens, UniProt P21860). Nature of the series: BLI binding to HER3 in ligand-bound 'open' conformation. The settings on record: NRG1 at 1:1 molar ratio with HER3. How it is done:
In further experiments, anti-HER3 antibodies were analysed in order to determine the affinity of binding to human HER3 in the context of a human HER3: human NRG1 complex (that is, HER3 provided in the ligand-bound, ‘open’ conformation), as compared to the affinity of binding to human HER3 in the absence of NRG1 complex (that is, HER3 provided in the unbound, ‘closed’ conformation).
as §1
Background: BLI is a label-free optical method that tracks binding on a fibre tip over time.

For the next series, the target named is T1, human EGFR (Homo sapiens, UniProt P00533).
T1 construct: purchased Sino Biological Inc., China
Briefly: ELISA for antibody specificity: human EGFR (HER1). The class given is binding. How it is done:
ELISAs were used to determine the binding specificity of the antibodies. The antibodies were analysed for binding to human HER3 polypeptide, as well as respective mouse, rat and monkey homologues of HER3 (Sino Biological Inc., China). The antibodies were also analysed for their ability to bind to human EGFR and human HER2 (Sino Biological Inc., China).
ELISAs were carried out according to standard protocols. Briefly, 96-well plates (Nunc, Denmark) were coated with 0.1 μg/ml of target polypeptide in phosphate-buffered saline (PBS) for 16 h at 4° C. After blocking for 1 h with 1% BSA in Tris buffer saline (TBS) at room temperature, the anti-HER3 antibody was serially diluted with the highest concentration being 10 μg/ml, and added to the plate. Post 1 h incubation at room temperature, plates were washed three times with TBS containing 0.05% Tween 20 (TBS-T) and were then incubated with a HRP-conjugated anti-His antibody (Life Technologies, Inc., USA) for 1 h at room temperature. […] The reaction was stopped with 2M H2SO4, and OD was measured at 450 nm.
The antibodies were analysed for their ability to bind to human HER3 polypeptide as well as human HER1 (EGFR) and human HER2 (Sino Biological Inc., China). […]
ELISAs were carried out according to standard protocols. […] The reaction was stopped with 2M […], and OD was measured at 450 nm.
(An ELISA detects its analyte on a solid surface through an enzyme-linked reagent.)

The next series concerns the target His-tagged human HER3 (Homo sapiens, UniProt P21860). Nature of the series: BLI competition between anti-HER3 antibodies for binding to HER3. As to the method:
Bio-Layer Interferometry (BLI) experiments were performed using the Octet QK384 system (ForteBio). anti-Penta-HIS (HIS1K) coated biosensor tips (ForteBio, USA) were used to capture His-tagged human HER3 (75 nM; 300 s). […] The variable region of LJM-716 antibody was cloned in the PDZ vector having human IgG1 and IgKappa Fc backbone.
BLI experiments were performed as described in Example 3.5 with one alteration: 400 nM of competing antibodies were used. The variable regions of M-05-74 and M-08-11 antibodies were cloned in the PDZ vector having human IgG1 and IgKappa Fc backbone.

Series [2] has as its system intracellular signalling pathways in FaDu cells. Nature of the series: Phosphoprotein Antibody Array, FaDu cells. The following applies: 50 μg/ml antibody 4 hrs, NRG 100 ng/ml 15 min. The format is cell-based. How it is done: In further experiments the inventors investigated the intracellular signalling pathways affected by anti-HER3 antibody-mediated inhibition of HER3.
FaDu cells were seeded in wells of a 6 well plate with 10% serum at 37° C., 5% CO2. After 16 hrs, cells were starved by culture overnight in 1% FBS cell culture medium. On the following day cells were treated with 50 μg/ml anti-HER3 antibody 10D1 for 4 hrs, followed by 15 min stimulation with NRG (100 ng/ml). Proteins were then extracted, quantified using standard Bradford protein assay, and incubated overnight with pre-blocked Phosphoprotein Antibody Array membrane (Ray Biotech) at 4° C. The membrane was then washed with washing buffer and incubated with detection antibody cocktail for 2 hrs at room temperature, followed by washing and incubation with HRP-Conjugated anti-IgG. After 2 hrs the membrane was washed and probed using the kit detection buffer. Images were captured with Syngene Gbox imaging system, the intensity of each dot/phosphoprotein was measured and percent inhibition was calculated by comparison with intensity measured for cells treated in the same way in the absence of the antibody.

The test system of series [3] is HER3 extracellular domain. Nature of the series: Epitope mapping with overlapping 15-mer peptides. The format is binding, human. As to the method:
The epitope for 10D1 was mapped using overlapping 15-mer amino acids to cover the entire HER3 extracellular domain. Each unique 15-mer was elongated by a GS linker at C and N-terminals, conjugated to a unique well in 384 well plates, and the plates were incubated with 0.1, 1, 10 and 100 ug/ml of 10D1 antibody for 16 hrs at 4° C. The plates were washed and then incubated for 1 hr at 20° C. with POD-conjugated goat anti-human IgG. Finally POD substrate solution was added to the wells for 20 min. before binding was assessed by measurement of chemiluminescence at 425 nm using a LI-COR Odyssey Imaging System, and quantification and analysis was performed using the PepSlide Analyzer software package. The experiment was performed in duplicate.

Consider “LJM716: anti-HER3 antibody clone described in Garner et al., Cancer Res (2013); epitope across domains II and IV [reference compound]”, for which, in the series with human HER3, the “affinity of binding to human HER3 in the absence of NRG1” value was “subpicomolar affinity”. Also, the “affinity of binding to human HER3 in the presence of NRG1” value in series [1] is reported as “dramatically reduced”.

B1: 4-35-B2: anti-HER3 antibody clone, VH SEQ ID NO:127, VL SEQ ID NO:135 (antibody, V domains shown)
VH: EIQLQQSGPELVKPGASVKVSCKASGYSFTDYNMYWVKQSHGKSLEWIGHINPYNGGTTYNQKFKGRATLTVDKSSSTAFMHLNSLTSEDSAVYFCVSLRWGAMDYWGQGTSVTVSS
VL: QIVLTQSPALMSASPGEKVTMTCSASSSVSYMYWYQQKPRSSPKPWIYLTSNLASGVPARFSGSGSGTSYSLTISSMEAEDAATYYCQQWNSNPYTFGGGTKLEIK
modifications: 4-35-B2 heavy chain variable region; 4-35-B2 light chain variable region
Consider B1, for which, in the series with human EGFR, the “binding to human EGFR” value is given as “found to bind”.

B2: 10D1: parental mouse anti-HER3 antibody clone, VH SEQ ID NO:24, VL SEQ ID NO:74, human IgG1 chimeric (antibody, V domains shown)
VH: DVQLQESGPDLVKPSQSLSLTCTVTGYSITSGYSWHWIRQFPGNKLEWMGSIHYSGGTNYNPSLKSRISITRDTSKNQFFLQLNSVTTEDTATYFCARMTTAPRYPFDYWGQGTTLTVSS
VL: DIVMTQSQKFMSTSVGDRVSVTCKASQIVGSNVAWYQQKPGQSPKPLIYSASYRYSGVPDRFTASGSGTDFTLTITNVQSEDLAEYFCQQYSSHPLTFGAGTKLELK
modifications: human IgG1 constant regions; 10D1 heavy chain variable region; 10D1 light chain variable region
With B2, the “epitope of HER3 relative to MM-121 and/or LJM-716” value with His-tagged human HER3 is “distinct and topologically distant epitope”. In addition, the “PI3K/AKT/mTOR and MAPK signalling” value in series [2] is “inhibit PI3K/AKT/mTOR and MAPK signalling”. The “location of epitope relative to β-hairpin of HER3 dimerisation arm” value in series [3] was “at a dimerisation interface N-terminal to the β-hairpin”. The “site of HER3 bound” value in series [3] (positions of human HER3 SEQ ID NO:1, region SEQ ID NO:229) is listed as “positions 218 to 235”.

B3: 10D1F: clone with VH SEQ ID NO:36 and VL SEQ ID NO:83; b369 means 10D1F.A, b1087 the mIgG2a format (antibody, V domains shown)
VH: QVQLQESGPGLVKPSQTLSLTCTVSGYSITSGYSWHWIRQHPGKGLEWIGSIRYSGGTDYNPSLKSLVTISADTSKNQFSLKLSSVTAADTAVYYCARMTTAPWYPFDYWGQGTTVTVSS
VL: DIQMTQSPSSVSASVGDRVTITCKASQIVGSNVAWYQQKPGKAPEPLIYSASYLYSGVPSRFSGSGSGTDFTLTISSLQPEDFATYYCQQYSSHPLTFGQGTKLEIK
modifications: 10D1_c89 heavy chain variable region; 10D1_c89 light chain variable region
notes: b369 means 10D1F.A, b1087 the mIgG2a format
Regarding B3, the “affinity of binding to human HER3 in the absence of NRG1” value with human HER3 is recorded as “sub-picomolar affinity”. For the same molecule, the “affinity of binding to human HER3 in the presence of NRG1” value in series [1] is reported as “sub-picomolar affinity”.
